Molecular target: N-terminal Nanoluciferase-tagged p97-N domain (human)
Assay: FRET or BRET; NanoBRET in p47-knockout U2OS cells: Nanoluciferase-p97-N donor, p47-UBX-HaloTag acceptor, co-transfected with antibody-fragment or p47-FLAG plasmids; compared with scFv-RNase and scFab-RNase controls

Sequence of N-terminal Nanoluciferase-tagged p97-N domain (human) (P55072 2-806): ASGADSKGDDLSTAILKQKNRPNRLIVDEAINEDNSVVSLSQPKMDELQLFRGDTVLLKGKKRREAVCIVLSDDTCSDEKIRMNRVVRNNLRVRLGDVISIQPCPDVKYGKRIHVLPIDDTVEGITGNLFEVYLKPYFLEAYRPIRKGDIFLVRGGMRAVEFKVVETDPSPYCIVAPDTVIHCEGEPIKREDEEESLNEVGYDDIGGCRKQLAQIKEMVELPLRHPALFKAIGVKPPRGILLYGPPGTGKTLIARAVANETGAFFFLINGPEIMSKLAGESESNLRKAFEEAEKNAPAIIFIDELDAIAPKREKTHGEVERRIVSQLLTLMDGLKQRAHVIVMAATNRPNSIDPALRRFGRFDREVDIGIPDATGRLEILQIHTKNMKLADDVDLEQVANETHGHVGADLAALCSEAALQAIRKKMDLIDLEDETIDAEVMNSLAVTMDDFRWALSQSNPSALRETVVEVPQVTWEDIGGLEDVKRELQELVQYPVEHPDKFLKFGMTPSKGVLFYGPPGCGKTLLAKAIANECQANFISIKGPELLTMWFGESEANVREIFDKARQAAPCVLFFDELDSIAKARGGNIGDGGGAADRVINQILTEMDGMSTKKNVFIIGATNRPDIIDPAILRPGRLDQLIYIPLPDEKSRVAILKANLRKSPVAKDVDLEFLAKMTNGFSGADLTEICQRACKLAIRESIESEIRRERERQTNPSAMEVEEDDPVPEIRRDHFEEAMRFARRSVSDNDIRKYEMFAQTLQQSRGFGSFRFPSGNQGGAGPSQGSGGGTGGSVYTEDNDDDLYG

B1: p47-FLAG (natural protein)
chain: MAAERQEALREFVAVTGAEEDRARFFLESAGWDLQIALASFYEDGGDEDIVTISQATPSSVSRGTAPSDNRVTSFRDLIHDQDEDEEEEEGQRFYAGGSERSGQQIVGPPRKKSPNELVDDLFKGAKEHGAVAVERVTKSPGETSKPRPFAGGGYRLGAAPEEESAYVAGEKRQHSSQDVHVVLKLWKSGFSLDNGELRSYQDPSNAQFLESIRRGEVPAELRRLAHGGQVNLDMEDHRDEDFVKPKGAFKAFTGEGQKLGSTAPQVLSTSSPAQQAENEAKASSSILIDESEPTTNIQIRLADGGRLVQKFNHSHRISDIRLFIVDARPAMAATSFILMTTFPNKELADESQTLKEANLLNAVIVQRLT
Q: With B1 as the binder, how does the reduction of the BRET ratio of the p97-N/p47-UBX pair read?
A: The reduction of the BRET ratio of the p97-N/p47-UBX pair was 15%.
